Data on 17 molecules can be found in US20120213763A1 (COUNCIL OF SCIENTIFIC AND INDUSTRIAL RESEARCH, published 2012).

Where a chain is given by its changes, count along the chain named. In names and notes the source's numbering stands. Where two headings read alike, the source gives them in different places.

Common to all, as to assay: cell-based or functional assay
Experiment [1] has as its target human plasminogen (HPG) (human) (UniProt P00747).
Experiment [2] concerns the target T1, human plasminogen (HPG) (human, UniProt P00747 97-810).
Experiment [3] addresses T1, human plasminogen (HPG). This is another data set of the same source.

T1 sequence (P00747 97-810): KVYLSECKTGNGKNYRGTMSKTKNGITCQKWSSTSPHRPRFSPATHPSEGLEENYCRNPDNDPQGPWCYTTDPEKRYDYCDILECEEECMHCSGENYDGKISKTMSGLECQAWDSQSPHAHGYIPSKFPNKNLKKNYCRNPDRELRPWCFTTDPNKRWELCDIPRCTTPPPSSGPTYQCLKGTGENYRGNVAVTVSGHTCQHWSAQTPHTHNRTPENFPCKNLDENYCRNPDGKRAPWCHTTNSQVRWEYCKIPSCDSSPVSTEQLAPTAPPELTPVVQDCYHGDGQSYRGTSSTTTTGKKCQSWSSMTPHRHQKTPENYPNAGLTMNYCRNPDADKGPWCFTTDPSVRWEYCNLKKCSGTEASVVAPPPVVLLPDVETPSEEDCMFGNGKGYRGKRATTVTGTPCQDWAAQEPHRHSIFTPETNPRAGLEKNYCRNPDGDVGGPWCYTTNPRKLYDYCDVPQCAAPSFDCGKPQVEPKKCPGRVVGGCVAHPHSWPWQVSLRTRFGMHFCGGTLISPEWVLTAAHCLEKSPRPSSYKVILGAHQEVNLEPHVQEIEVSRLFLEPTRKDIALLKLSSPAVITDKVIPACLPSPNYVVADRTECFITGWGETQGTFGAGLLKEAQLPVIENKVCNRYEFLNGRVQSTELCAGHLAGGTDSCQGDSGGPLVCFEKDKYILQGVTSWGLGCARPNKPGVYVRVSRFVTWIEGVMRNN
Sequence of human plasminogen (HPG) (human) (P00747 97-810): as above

Turning to “PEGylated SK C-383 Cys (SEQ ID NO 492), Cys at C + 1 position of SK 1-383, G3 (from UniProt P00779 27-409)”, the % Plasminogen activation in experiment [1] was 92%.

B1: bi-pegylated NC 1-414 (SEQ ID NO 491), Cys at N - 1 and at C + 1 position in SK (other)
chain: CIAGPEWLLDRPSVNNSQLVVSVAGTVEGTNQDISLKFFEIDLTSRPAHGGKTEQGLSPKSKPFATDSGAMSHKLEKADLLKAIQEQLIANVHSNDDYFEVIDFASDATITDRNGKVYFADKDGSVTLPTQPVQEFLLSGHVRVRPYKEKPIQNQAKSVDVEYTVQFTPLNPDDDFRPGLKDTKLLKTLAIGDTITSQELLAQAQSILNKNHPGYTIYERDSSIVTHDNDIFRTILPMDQEFTYRVKNREQAYRINKKSGLNEEINNTDLISEKYYVLKKGEKPYDPFDRSHLKLFTIKYVDVDTNELLKSEQLLTASERNLDFRDLYDPRDKAKLLYNNLDAFGIMDYTLTGKVEDNHDDTNRIITVYMGKRPEGENASYHLAYDKDRYTEEEREVYSYLRYTGTPIPDNPNDKC
modifications: PEG (methoxy-PEG maleimide, 20 KDa) on the Cys at N - 1 and on the Cys at C + 1
On to B1, for which, in the experiment with human plasminogen (HPG) [2], the “% Plasminogen Activation* (pre-complexed with equimolar plasmin)” value (“% Plasminogen Activation*” for short) was determined as 88%, the “% Plasminogen activation” value was less than 5% and the “Lag” value came out at 14 min.

B2: PEGylated SK N-Cys (SEQ ID NO 489), Cys at N - 1 position in SK (other)
chain: CIAGPEWLLDRPSVNNSQLVVSVAGTVEGTNQDISLKFFEIDLTSRPAHGGKTEQGLSPKSKPFATDSGAMSHKLEKADLLKAIQEQLIANVHSNDDYFEVIDFASDATITDRNGKVYFADKDGSVTLPTQPVQEFLLSGHVRVRPYKEKPIQNQAKSVDVEYTVQFTPLNPDDDFRPGLKDTKLLKTLAIGDTITSQELLAQAQSILNKNHPGYTIYERDSSIVTHDNDIFRTILPMDQEFTYRVKNREQAYRINKKSGLNEEINNTDLISEKYYVLKKGEKPYDPFDRSHLKLFTIKYVDVDTNELLKSEQLLTASERNLDFRDLYDPRDKAKLLYNNLDAFGIMDYTLTGKVEDNHDDTNRIITVYMGKRPEGENASYHLAYDKDRYTEEEREVYSYLRYTGTPIPDNPNDK
modifications: PEG (thiol-reactive methoxy-PEG maleimide) on the Cys at N - 1 position
Take B2: the “% Plasminogen activation” value with human plasminogen (HPG) [3] amounted to 88%.

B3: native streptokinase nSK (1-414) ATCC 12449 (SEQ ID NO 1) (other)
chain: IAGPEWLLDRPSVNNSQLVVSVAGTVEGTNQDISLKFFEIDLTSRPAHGGKTEQGLSPKSKPFATDSGAMSHKLEKADLLKAIQEQLIANVHSNDDYFEVIDFASDATITDRNGKVYFADKDGSVTLPTQPVQEFLLSGHVRVRPYKEKPIQNQAKSVDVEYTVQFTPLNPDDDFRPGLKDTKLLKTLAIGDTITSQELLAQAQSILNKNHPGYTIYERDSSIVTHDNDIFRTILPMDQEFTYRVKNREQAYRINKKSGLNEEINNTDLISEKYYVLKKGEKPYDPFDRSHLKLFTIKYVDVDTNELLKSEQLLTASERNLDFRDLYDPRDKAKLLYNNLDAFGIMDYTLTGKVEDNHDDTNRIITVYMGKRPEGENASYHLAYDKDRYTEEEREVYSYLRYTGTPIPDNPNDK
As for B3, the “% Plasminogen activation” value with human plasminogen (HPG) [3] was found to be 100%. In the experiment with human plasminogen (HPG) [2], the “% Plasminogen Activation*” value came to 100%, the “% Plasminogen activation” value is 100% and the “Lag” value came out at 1 min.

B4: PEGylated SK L179C (SEQ ID NO 41) (other)
chain: B3 chain with L179C
modifications: PEG (thiol-reactive methoxy-PEG maleimide) on Cys 179
In the case of B4, the “% Plasminogen activation” value in the experiment with human plasminogen (HPG) [3] amounted to 22%.

B5: PEGylated SK Lys 257 Cys (SEQ ID NO 48) (other)
chain: B3 chain with K257C
modifications: PEG (thiol-reactive methoxy-PEG maleimide) on Cys 257
On to B5, for which, in the experiment with human plasminogen (HPG) [3], the “% Plasminogen activation” value was found to be 92%.

B6: PEGylated SK K121C (SEQ ID NO 35) (other)
chain: B3 chain with K121C
modifications: PEG (thiol-reactive methoxy-PEG maleimide) on Cys 121
In the case of B6, the “% Plasminogen activation” value with human plasminogen (HPG) [3] came out at 95%.

B7: PEGylated SK Ser 258 Cys (SEQ ID NO 49) (other)
chain: B3 chain with S258C
modifications: PEG (thiol-reactive methoxy-PEG maleimide) on Cys 258
As to B7, the “% Plasminogen activation” value in the experiment with human plasminogen (HPG) [3] was determined as 100%.

B8: PEGylated SK D102C (SEQ ID NO 32) (other)
chain: B3 chain with D102C
modifications: PEG (thiol-reactive methoxy-PEG maleimide) on Cys 102
Regarding B8, in the experiment with human plasminogen (HPG) [3], the “% Plasminogen activation” value is 74%.

B9: PEGylated SK D173C (SEQ ID NO 39) (other)
chain: B3 chain with D173C
modifications: PEG (thiol-reactive methoxy-PEG maleimide) on Cys 173
Take B9: the “% Plasminogen activation” value with human plasminogen (HPG) [3] turned out to be 72%.

B10: PEGylated SK D95C (SEQ ID NO 30) (other)
chain: B3 chain with D95C
modifications: PEG (thiol-reactive methoxy-PEG maleimide) on Cys 95
As for B10, the “% Plasminogen activation” value in the experiment with human plasminogen (HPG) [3] came out at 96%.

B11: PEGylated SK S105C (SEQ ID NO 33) (other)
chain: B3 chain with S105C
modifications: PEG (thiol-reactive methoxy-PEG maleimide) on Cys 105
Take B11: in the experiment with human plasminogen (HPG) [3], the “% Plasminogen activation” value was found to be 76%.

B12: PEGylated SK D96C (SEQ ID NO 31) (other)
chain: B3 chain with D96C
modifications: PEG (thiol-reactive methoxy-PEG maleimide) on Cys 96
On to B12, for which, in the experiment with human plasminogen (HPG) [3], the “% Plasminogen activation” value worked out at 98%.

B13: PEGylated SK N255C (SEQ ID NO 46) (other)
chain: B3 chain with N255C
modifications: PEG (thiol-reactive methoxy-PEG maleimide) on Cys 255
With B13, the “% Plasminogen activation” value with human plasminogen (HPG) [3] was found to be 98%.

B14: PEGylated SK L260C (SEQ ID NO 50) (other)
chain: B3 chain with L260C
modifications: PEG (thiol-reactive methoxy-PEG maleimide) on Cys 260
As to B14, the “% Plasminogen activation” value in the experiment with human plasminogen (HPG) [3] was 100%.

B15: PEGylated SK C-Cys (SEQ ID NO 490), Cys at C + 1 position in SK (other)
chain: IAGPEWLLDRPSVNNSQLVVSVAGTVEGTNQDISLKFFEIDLTSRPAHGGKTEQGLSPKSKPFATDSGAMSHKLEKADLLKAIQEQLIANVHSNDDYFEVIDFASDATITDRNGKVYFADKDGSVTLPTQPVQEFLLSGHVRVRPYKEKPIQNQAKSVDVEYTVQFTPLNPDDDFRPGLKDTKLLKTLAIGDTITSQELLAQAQSILNKNHPGYTIYERDSSIVTHDNDIFRTILPMDQEFTYRVKNREQAYRINKKSGLNEEINNTDLISEKYYVLKKGEKPYDPFDRSHLKLFTIKYVDVDTNELLKSEQLLTASERNLDFRDLYDPRDKAKLLYNNLDAFGIMDYTLTGKVEDNHDDTNRIITVYMGKRPEGENASYHLAYDKDRYTEEEREVYSYLRYTGTPIPDNPNDKC
modifications: PEG (thiol-reactive methoxy-PEG maleimide) on the Cys at C + 1 position
Turning to B15, the “% Plasminogen activation” value with human plasminogen (HPG) [3] was determined as 95%.

B16: bi-pegylated NC 1-383 (SEQ ID NO 493), Cys at N - 1 and at C + 1 position in SK (1-383, G3) (other)
chain: CIAGPEWLLDRPSVNNSQLVVSVAGTVEGTNQDISLKFFEIDLTSRPAHGGKTEQGLSPKSKPFATDSGAMSHKLEKADLLKAIQEQLIANVHSNDDYFEVIDFASDATITDRNGKVYFADKDGSVTLPTQPVQEFLLSGHVRVRPYKEKPIQNQAKSVDVEYTVQFTPLNPDDDFRPGLKDTKLLKTLAIGDTITSQELLAQAQSILNKNHPGYTIYERDSSIVTHDNDIFRTILPMDQEFTYRVKNREQAYRINKKSGLNEEINNTDLISEKYYVLKKGEKPYDPFDRSHLKLFTIKYVDVDTNELLKSEQLLTASERNLDFRDLYDPRDKAKLLYNNLDAFGIMDYTLTGKVEDNHDDTNRIITVYMGKRPEGENASYHLAGGGC
modifications: PEG on the Cys at N - 1 and on the C-terminal Cys placed after three glycine residues
In the case of B16, in the experiment with human plasminogen (HPG) [2], the “% Plasminogen Activation*” value came to 92%, the “% Plasminogen activation” value was less than 5% and the “Lag” value is 12 min.
